{
  "source": "the DeepSol protein solubility set",
  "data": [
    {"assay": "soluble on expression in E. coli; label from the status in PepcDB or PDB records", "values": [
      {"sequence": "MEHFDVAIIGLGPAGSALARKLAGKMQVIALDKKHQCGTEGFSKPCGGLLAPDAQRSFIRDGLTLPVDVIANPQIFSVKTVDVAASLTRNYQRSYININRHAFDLWMKSLIPASVEVYHDSLCRKIWREDDKWHVIFRADGWEQHITARYLVGADGANSMVRRHLYPDHQIRKYVAIQQWFAEKHPVPFYSCIFDNAITDCYSWSISKDGYFIFGGAYPMKDGQTRFTTLKEKMSAFQFQFGKAVKSEKCTVLFPSRWQDFVCGKDNAFLIGEAAGFISASSLEGISYALDSAEILRAVFLKQPEKSNAAYWRATHKLRLKLFGKIVKSRCLTAPALRKWIMRSGVAHIPQLKDYPTRFTSPTSRM", "soluble on expression in E. coli": "not soluble"},
      {"sequence": "MEHNQLIAMITEAVMEQIRPLPKINQIPVAISNRHVHLSQEDAQTLFGPNYSFKIKKDLSQPGQYACEERVTLVGPKGVIENVRILGPVRPQTQVELSVSDGIKLGITPPVRDSGDLANSAGITLVGPSGSLTLPEGVIAAARHIHMHSTDAARFGVKDRDRVSVTAPGPRGLVFRETLIRVSHNFTLEMHIDIDEANAAALRNQDYVELLLVNHLLP", "soluble on expression in E. coli": "not soluble"},
      {"sequence": "MEHTKKFKSLNLHGFDRSTEDYGKRPFVLTAKLLEDQKKAIYGCAFNQYAGIDEEQAVATVGGSFLHMYSVPIDINNIELQWSCNFPTDKSSKVEREESLFTVTWCYDTYEAENDRNPFKVVTGGTLGHIYVIDYVSRKLSNRLRSVGWEINDIRTCPANSNLIVCASSDQSIRIHHIRNEACLIVIGGLECHAGTILSVDWSTDGDFILSCGFDHQLMEWDLSVKQVKEHLERACKALHQDKINVLTQSQDIPYVSKGTMRKSAVSRNIPDKEEDQLLELHRELIPRPSCLLPIYTPSSVSTDMHSDYVDCIRFLIGTNYALSKGCGNEKAIHFWRFGPPKGEVENRIHGNVLRPKSCTTKFRTMNVPSGSAWFIKFAVDPRRRWLVCGGAGGSVMFFDLRNNEETNPTHTCSVGSRTVRQASFSTCGRFLVLVTDEGFVCRFDRVSASVDAKDLFLMSSPTSSKDYSSPKHSFMLTVDSNLQSDKKKTFLNVQSSSSAGSTKHCQIPMSKDEYFETRGKLDSVDVIDQFRQRQQ", "soluble on expression in E. coli": "not soluble"},
      {"sequence": "MEIIRPMRVAIVAESFLPNVNGVTNSVLRVLEHLKANGHDALVIAPGARDFEEEIGHYLGFEIVRVPTVRVPLIDSLPIGVPLPSVTSVLREYNPDIIHLASPFVLGGAAAFAARQLRIPAIAIYQTDVAGFSQRYHLAPLATASWEWIKTVHNMCQRTLAPSSMSIDELRDHGINDIFHWARGVDSKRFHPGKRSVALRKSWDPSGAKKIVGFVGRLASEKGVECLAGLSGRSDIQLVIVGDGPEAKYLQEMMPDAIFTGALGGEELATTYASLDLFVHPGEFETFCQAIQEAQASGVPTIGPRAGGPIDLINEGVNGLLLDVVDFKETLPAAAEWILDDSRHSEMCAAAWEGVKDKTWEALCTQLLQHYADVIALSQRIPLTFFGPSAEVAKLPLWVARALGVRTRISIEALEHHHHHH", "soluble on expression in E. coli": "soluble"},
      {"sequence": "MEIKTTTTLHRVVEETTKPLGATLVVETDISRKDVNGLARGHLVDGIPLCTPSFYADIAMQVGQYSMQRLRAGHPGAGAIDGLVDVSDMVVDKALVPHGKGPQLLRTTLTMEWPPKAAATTRSAKVKFATYFADGKLDTEHASCTVRFTSDAQLKSLRRSVSEYKTHIRQLHDGHAKGQFMRYNRKTGYKLMSSMARFNPDYMLLDYLVLNEAENEAASGVDFSLGSSEGTFAAHPAHVDAITQVAGFAMNANDNVDIEKQVYVNHGWDSFQIYQPLDNSKSYQVYTKMGQAKENDLVHGDVVVLDGEQIVAFFRGLTLRSVPRGALRVVLQTTVKKADRQLGFKTMPSPPPPTTTM", "soluble on expression in E. coli": "soluble"},
      {"sequence": "MEILNQFSQFSPNMEAQGASSIPQPSQDAHEKARQQAENQETAKNGMISQILDQAAMQRLSNLAVAKPEKAQMVEAALINMARRGQLSGKMTDDGLKALMERVSAQTQKATSVKFDRRRNELDSDEELDL", "soluble on expression in E. coli": "not soluble"},
      {"sequence": "MEIRLFSGSAHPDLARRVAEALGVPLGKALVDRFPDGEVRVRLLESVRGEDVYLIQPTCPPVNDHLMELLLLADAARRSSAGRINAVIPYFGYARQDKQTEGREPISARLVAGLLERVGVERVIAIDLHAPQIQGFFDIPVDHLSAVRLFARYLREKGYVENAVVVSPDAGRAEEARRLAERLGLPLAMLAKRRLGPRETSVTYVIGDVEGKRPILVDDIVSTGGTIRRGVEALLQAGALPEVVVMATHAVLVGGAKENLAHPAVREVVFTDTIPLKDGGYTVLSTAELLAQAIRHVHTNQSVSALI", "soluble on expression in E. coli": "soluble"},
      {"sequence": "MEIRYAKEEEIESIKDIWSYCFNDTESFMKYYFNDKYKSENTVVALDEGKIISSLQLNQYKLLLNSKVYNTSYVVGVSTLPEGRGAGYMNKVMKFTLNELYKKGQLVSILMPIDYRLYRRFGYEHCYDQIEYTINTDDLKNFKSSGKMIKSNLSQIDDLIQIDRTFLNEVNGNVLKDEHYYENLFKEIQSEDGFLYIHEGNEKDGYIVYFLQEDKMFVRELFYKNIDALKSMLKFIYNHNTQCKIVTISTPTIDKIRFILDNPKDSDIKIKPFMMGRVINVKKFIEDIDIENDINSSFNLLIEDKFIDENNGLFKISIQNKKVSVEQLDKKGAEKPQEDFDIKLDINTLTQLSFSYIDVNEAIFLNDIKDVSEETLETLNCIFSKKNNYINEYI", "soluble on expression in E. coli": "not soluble"},
      {"sequence": "MEITLNSGFKMPIIGLGVWRMEKEELRDLIIDAIKIGYRHLDCAANYKNEAEVGEALTEAFTTGLVKREDLFITTKLWSSDHGHVIEACKDSLKKLQLDYLDLFLVHIPIATKHTGIGTTDSALGDDGVLDIDTTISLETTWHDMEKLVSMGLVRSIGISNYDVFLTRDCLAYSKIKPAVNQIETHPYFQRDSLVKFCQKHGICVTAHTPLGGATANAEWFGTVSCLDDPVLKDVAEKYKQTVAQIVLRWGIQRNTVVIPKTSKPERLEENFQVFDFQLSKEDMEVIKSMERNYRTHQTAKFWGIELYA", "soluble on expression in E. coli": "soluble"},
      {"sequence": "MEKELDLSQYSVRTDLAVEAKDIALENQPKPNNQSEIKGVIVKEKEEQGVKISMVEITEEGAEAIGKKKGRYVTLESVGIREQDTEKQEEAMEEVFAKELNFFIKSLNIPDDASCLVVGLGNLSVTPDALGPKAVDNLLITRHLFELQPESVQDGFRPVSAIVPGVMGMTGIETSDIIFGVVKKVNPDFIIAIDALAARSIERVNATIQISDSGIHPGSGVGNKRKEISYETLGIPVIAIGIPTVVDAVSITSDTIDFILKHFGREMKEQGKPSKSLLPSGMTFGEKKKLTEDDLPNEEQRQTYLGMIGTLPDEEKRRLIHEVLAPLGHNLMVTPKEVDMFIEDMANVVAGGLNAALHHEVDQENFGAYTH", "soluble on expression in E. coli": "soluble"},
      {"sequence": "MEKELKALTKRLQQYNEQLLLIARRARERNEEPDFFGDVKPMAEEVQAVAERWKDAASRWVRHARPKYVHERQIEAAADHMAKLCVEAFYPSVPERRIKQYSQAVAYTLALVKERLDDTSEAGKERL", "soluble on expression in E. coli": "not soluble"},
      {"sequence": "MEKELVFAGFGGQGVLTLGLIVAESALELGKQVTWMPAYGPTMRGGKAYSVVKFSDESIGGPDMEEIDVLVAMNKPSLDYINLVKEGGTVVINTSAIDENVTLREDISVVKINCQELAQKVNNPK", "soluble on expression in E. coli": "not soluble"},
      {"sequence": "MEKETKEKIEKTVIEILSESDMKEITEFKVRKLASEKLAIDLSEKSHKAFVRSVVEKFLDEERAREYENSQVNKEEEDGDKDCGKGNKEFDDDGDLIICRLSDKRRVTIQEFKGKSLVSIREYYKKDGKELPTSKGISLTDEQWSTFKKNMPAIENAVKKMESRV", "soluble on expression in E. coli": "soluble"},
      {"sequence": "MEKFDVIIIGAGPAGLFAAYELVERSNMKVLIIDEGGDVDQRVCPMDQLGYCIGCKPCHIMSGVGGAGGLSDGTVNLRPDIGGDLTELTNDENYSWQLVWEVDQILLKHGAPRNLYKGDPDQIRYWERKAAQAGVKFIPIIQRHIGSDNTPRVIKSIKQYLESKGVKFLLWTKALEFNKGWVKVRRGKDVFTIEGKYIIVAPGRGGAEWFHEIAQKIGLKARHGPIDVGVRVEVPAIIMEPITSINHDPKFHIYTDTYDDFVRTFCTNPYGFVVEERYDGYVGVNGHSMRNKKSNNTNFAFLTRIELTEPVEDTTAYGRSIAQLATTIGGGRPILQRLGDLRRGRRSTWSRIRKSNVEPTLKHVTPGDIAMALPHRVVTNIIEGLEKLDKVIPGVASDHTLLYAPEIKYYAMKVEVNELLETSIENVFAAGDGAGLSRDIVNAAATGIMAARGILVKEGLYNLKDFKKPGNWKEKIESLEPEELEHHHHHH", "soluble on expression in E. coli": "soluble"},
      {"sequence": "MEKFIDENVAFGRMPYEDEIDELVEKFDAFVVLVEDFELVYDIEELKKKVDVLHSPIPDFTAPSLSQLYKIVKWIEEKVKEGKKVYIHCYGGSGRSGTVAVAWLMYSQGLSLREGLRRVRLLKPSAVETEDQLEVLREFERFLDTR", "soluble on expression in E. coli": "soluble"},
      {"sequence": "MEKHDICPSISEYSYHEILGFYINPVENHLASKNMLIDLDERSVEGLLIFIAECNLGIENRVMEHMNKGIRKCKDHRFT", "soluble on expression in E. coli": "not soluble"},
      {"sequence": "MEKIRQPTHAGSWYTDNPTKLSSDLEEWLNATGLTKSPDVRGVIAPHAGYSYSGRAAAYAFANIDPTNISRIFLLGPSHHFYTPKCALSTATVYKTPIGNLPVDVEMIKEIRAMGKFGMMDLRVDEAEHSMEMHLPYLAKVFEGNNVKVVPILVGAVSPENEAMYGELLAKYVDDPKNFFSVSSDFCHWGSRFNYMHYDNTHGAIHKSIEALDKKGMDIIETGDPDAFKKYLLEFENTICGRHPISIFLHMLKHSSSKIKINFLRYEQSSQCQTMRDSSVSYASAAAKLET", "soluble on expression in E. coli": "not soluble"},
      {"sequence": "MEKKKVTIPQVCHGHSRPVVDLFYSPITPDGFFLISASKDSHPMLRNGETGDWIGTFEGHKGAVWSSCLDNNALRAASASADFSAKLWDALTGDVLHSFEHKHIVRACAFSEDTKSLLTGGFEKILRVFDMNRLDAPPTEVDKSPGSIRTLTWLHSDQTILSSCTDIGGVRLWDVRSGKIVQTLETKSPVTSAEVSQDGRYITTADGSTVKFWDANHFGLVKSYDMPCNIESASLEPKSGEKFVAGGEDMWVRVFDFYTGEEIGCNKGHHGPVHCVRFTPTGLSYASGSEDGTIRIWQTTPANPEENETSSRRVKHSVDEVSKKIEGFHINKEGKTAEKPSDT", "soluble on expression in E. coli": "soluble"},
      {"sequence": "MEKLTMQEEEVMIYIWELESCYVKDIVAKFEQPTPPYTTVASIVKNLERKKYVKAQRVGNTYLYTPSIKESEYKRSFMSGVVRNYFENSYKEMVSFFAKDQKISTNDLKEIIDMIEKGQEK", "soluble on expression in E. coli": "not soluble"},
      {"sequence": "MEKMKNLDGKVALVTGASRGIGRAIAMRLANDGALVAIHYGRNKQAADETIREIESNEGKAFLIEADLNSIDGVKKLVEQLKNELQIRVGTSEIDILVNNAGIGTQGTIENTTEEIFDEIMAVNIKAPFFLIQQTLPLLRAEGRVINISSAEVRLGFTGSIAYGLSKGALNTMTLPLAKHLGERGITVNTIMPGYTKTDINAKLLDDPEIRNFAANSSVFGRIGQVEDIADAVAFLAASDSRWVTGQIIDVSGGFCL", "soluble on expression in E. coli": "not soluble"},
      {"sequence": "MEKNYYVCTGCGMLCDDIEVDVENNKINKVYTACRIGVAHMKDGKESAAFLVDNKPVDETTAISEAATILKNAKNPLIFGLGTSSNEAQKLAIELAKKTSATLDDASSFSLGEVIEALLNNKTKVCTLDDVRNKADVSIFWGTDPSDSHPRQLSKYAYFPRGTEKQRGWEEERTAICIDVRKSHTAKICGNYFFQIPPGGDAEFIDALIAALAGKLPKTSYNFPPKRILELANILKGAKFGVVFAGRGLVYSLDNLEPLIRLMNALNEKANFHLVPMIRQYNTRGFNENLFKETGYVNSVKFEDGTVKHGPEYSVVESLKEKTVDAALIIGSDPFSILPRSIAKNLLEVPVIVLDPCETLTSRNAKVYISTAIDGVESGGSAIRMDGVKVDFKPAVETKRPSDETVLKKIMEAL", "soluble on expression in E. coli": "not soluble"}
    ]}
  ]
}
